Measured values from patent US20170233472A1 (MacroGenics, published 2017).
Numbering of substitutions follows the chain as printed. Names and notes keep the numbering of the source.

What was measured:
[1] = biological target: T1, human ROR1 expressed on the surface of cancer cells (human, UniProt Q01973 30-937); assay: cell-based or functional assay
[2] = biological target: T2, His-tagged soluble human ROR1 (shROR1-His) (human, UniProt Q01973 30-406); assay: SPR (Biacore), shROR1-His captured on anti-PentaHis surface, diabody 6.25-100 nM as analyte
T2 construct: also called ROR1 protein; immobilized ROR1; not shown: His-Tag
Experimental: The binding affinity of DART-1, DART-A, DART-B, and DART-C was investigated using Biacore analysis in which each diabody construct was passed over immobilized ROR1. Briefly, shROR1-His was captured on immobilized anti-PentaHis surface and was incubated with DART-1, DART-A, DART-B or DART-C at 6.25-100 nM, and the kinetics of binding was determined via Biacore analysis.

[3] = biological target: T2, His-tagged soluble human ROR1 …; assay: sandwich ELISA: plate coated with shROR1-His, serial dilutions of diabody, bound diabody detected with biotinylated CD3 and streptavidin-HRP; abs @450nm
Experimental: (§1) The ability of the bispecific ROR1×CD3 two and three chain diabodies DART-1 and DART-A to bind both ROR1 and CD3 was examined by a sandwich ELISA. Briefly, microtiter plates were coated with shROR1-His, the plates were washed and incubated with three-fold serial dilutions of DART-1 or DART-A. The amount of diabody binding to the immobilized ROR1 was assessed using a biotinylated CD3 detected with Streptavidin-HRP. All samples were analyzed on a plate reader and binding curves generated. […] The cells were washed twice incubated with biotin-conjugated mouse anti-EK-coil antibody that recognizes the E-coil/K-coil (EK) heterodimerization region (100 μL of 1 μg/mL mixed with 1:500 diluted streptavidin-phycoerythrin) for 45 min. The cells were then washed and resuspended with FACS buffer, and analyzed with a BD FCS Canto II flow cytometer using FlowJo v10 software.

[4] = biological target: T2, His-tagged soluble human ROR1 …; assay: sandwich ELISA: plate coated with shROR1-His, serial dilutions of diabody, bound diabody detected with biotinylated CD3 and streptavidin-HRP; y axis 'Mean Value'
Experimental: as §1

[5] = biological target: T2, His-tagged soluble human ROR1 …; assay: SPR (Biacore)
[6] = biological target: T1, human ROR1 expressed on the surface of …; assay: cell-based or functional assay; remark: listed apart in the source
[7] = biological target: T2, His-tagged soluble human ROR1 …; assay: SPR (Biacore), diabody captured via anti-E/K-coil, shROR1-His as analyte
Experimental: The binding kinetics of DART-1 to DART-6, DART-10 to DART-17, DART-20 to DART-33 was investigated using Biacore analysis in which ROR1 protein was passed over immobilized diabodies. Briefly, each diabody construct was captured on immobilized anti-E/K-coil surface and was incubated with shROR1-His at 25 and 100 nM, and the kinetics of binding were determined via Biacore analysis.

T1 sequence (Q01973 30-937): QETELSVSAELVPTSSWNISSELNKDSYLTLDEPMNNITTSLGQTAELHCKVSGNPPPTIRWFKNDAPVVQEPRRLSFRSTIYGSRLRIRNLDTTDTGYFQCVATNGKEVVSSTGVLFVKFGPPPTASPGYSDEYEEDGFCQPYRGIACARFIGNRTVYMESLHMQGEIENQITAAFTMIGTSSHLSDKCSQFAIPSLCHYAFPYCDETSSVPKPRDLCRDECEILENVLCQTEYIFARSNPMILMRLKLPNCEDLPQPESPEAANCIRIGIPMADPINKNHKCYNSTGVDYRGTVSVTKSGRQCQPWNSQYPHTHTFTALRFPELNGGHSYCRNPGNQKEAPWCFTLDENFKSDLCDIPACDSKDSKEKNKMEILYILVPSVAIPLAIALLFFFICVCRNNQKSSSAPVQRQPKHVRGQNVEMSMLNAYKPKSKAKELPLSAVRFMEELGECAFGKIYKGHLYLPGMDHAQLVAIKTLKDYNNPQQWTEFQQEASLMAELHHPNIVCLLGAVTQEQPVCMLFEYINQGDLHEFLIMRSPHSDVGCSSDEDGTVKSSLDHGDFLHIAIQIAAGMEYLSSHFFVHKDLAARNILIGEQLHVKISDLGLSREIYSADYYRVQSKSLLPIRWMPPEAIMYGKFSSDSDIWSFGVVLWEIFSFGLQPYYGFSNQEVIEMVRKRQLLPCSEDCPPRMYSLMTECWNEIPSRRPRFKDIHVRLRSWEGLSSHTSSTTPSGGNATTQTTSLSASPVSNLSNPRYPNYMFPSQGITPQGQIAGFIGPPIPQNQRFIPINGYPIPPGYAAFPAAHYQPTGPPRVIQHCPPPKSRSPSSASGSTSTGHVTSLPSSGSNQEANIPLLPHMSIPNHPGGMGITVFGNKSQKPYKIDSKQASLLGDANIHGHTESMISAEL
T2 sequence (Q01973 30-406): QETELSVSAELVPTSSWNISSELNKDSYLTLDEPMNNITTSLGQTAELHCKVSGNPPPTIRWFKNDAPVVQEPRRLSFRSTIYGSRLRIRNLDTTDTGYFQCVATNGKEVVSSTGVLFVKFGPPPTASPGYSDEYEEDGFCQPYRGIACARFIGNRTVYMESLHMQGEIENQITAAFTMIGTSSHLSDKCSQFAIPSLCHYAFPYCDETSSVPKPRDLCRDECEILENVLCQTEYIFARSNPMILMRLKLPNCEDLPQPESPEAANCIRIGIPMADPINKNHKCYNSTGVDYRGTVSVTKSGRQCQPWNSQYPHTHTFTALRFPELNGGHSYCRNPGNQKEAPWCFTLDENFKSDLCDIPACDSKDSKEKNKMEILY

B1: DART-A (bispecific antibody, IgG1)
chain 1: QLVLTQSPSASASLGSSVKLTCTLSSGHKTDTIDWYQQQPGKAPRYLMKLEGSGSYNKGSGVPDRFGSGSSSGADRYLTISSLQSEDEADYYCGTDYPGNYLFGGGTQLTVLGGGGSGGGGEVQLVESGGGLVQPGGSLRLSCAASGFTFSTYAMNWVRQAPGKGLEWVGRIRSKYNNYATYYADSVKGRFTISRDDSKNSLYLQMNSLKTEDTAVYYCVRHGNFGNSYVSWFAYWGQGTLVTVSSASTKGEVAACEKEVAALEKEVAALEKEVAALEKGGGDKTHTCPPCPAPEAAGGPSVFLFPPKPKDTLMISRTPEVTCVVVDVSHEDPEVKFNWYVDGVEVHNAKTKPREEQYNSTYRVVSVLTVLHQDWLNGKEYKCKVSNKALPAPIEKTISKAKGQPREPQVYTLPPSREEMTKNQVSLWCLVKGFYPSDIAVEWESNGQPENNYKTTPPVLDSDGSFFLYSKLTVDKSRWQQGNVFSCSVMHEALHNHYTQKSLSLSPGK
chain 2: QAVVTQEPSLTVSPGGTVTLTCRSSTGAVTTSNYANWVQQKPGQAPRGLIGGTNKRAPWTPARFSGSLLGGKAALTITGAQAEDEADYYCALWYSNLWVFGGGTKLTVLGGGGSGGGGQEQLVESGGGLVQPGGSLRLSCAASGFTFSDYYMSWVRQAPGKGLEWVATIYPSSGKTYYADSVKGRFTISSDNAKNSLYLQMNSLRAEDTAVYYCARDSYADDAALFDIWGQGTTVTVSSASTKGKVAACKEKVAALKEKVAALKEKVAALKE
chain 3: not shown
notes: Three chain Fc Region-containing diabody (knob/hole IgG1 CH2-CH3 with L234A/L235A); C-terminal lysine of the Fc chains may be removed post-translationally; also called ROR1×CD3 bispecific three chain diabody with parental anti-ROR1-VL and anti-ROR1-VH
- EC50 nM, redirected cell killing of Calu-3 cells by pan T-cells (LDH release) [1]: 0.196 nM
- EC50 nM, redirected cell killing of JIMT-1 cells by pan T-cells (LDH release) [1]: 0.161 nM
- EC50 nM, redirected cell killing of NCI-H1975 cells by pan T-cells (LDH release) [1]: 0.266 nM
- Kd [2]: 0.69 nM
- EC50 (read off the curve) [3]: ~2 nM
- EC50 (read off the curve) [4]: ~1 nM

B2: DART-C (bispecific antibody)
chain 1: QLVLTQSPSASASLGSSVKLTCTLSSGHKTDTIDWYQQQPGKAPRYLMKLEGSGSYNKGSGVPDRFSGSSSGADWYLTISSLQSEDEADYYCGTDYPGNYLFGGGTQLTVLGGGGSGGGGEVQLVESGGGLVQPGGSLRLSCAASGFTFSTYAMNWVRQAPGKGLEWVGRIRSKYNNYATYYADSVKGRFTISRDDSKNSLYLQMNSLKTEDTAVYYCVRHGNFGNSYVSWFAYWGQGTLVTVSSASTKGEVAACEKEVAALEKEVAALEKEVAALEKGGGDKTHTCPPCPAPEAAGGPSVFLFPPKPKDTLMISRTPEVTCVVVDVSHEDPEVKFNWYVDGVEVHNAKTKPREEQYNSTYRVVSVLTVLHQDWLNGKEYKCKVSNKALPAPIEKTISKAKGQPREPQVYTLPPSREEMTKNQVSLWCLVKGFYPSDIAVEWESNGQPENNYKTTPPVLDSDGSFFLYSKLTVDKSRWQQGNVFSCSVMHEALHNHYTQKSLSLSPGK
chain 2: B1 chain 2 with F186L, N195D, A215T
chain 3: not shown
notes: Three chain Fc Region-containing ROR1×CD3 diabody
- fold enhancement of binding relative to DART-A [5]: > 2 fold
- Kd [2]: 0.25 nM
- EC50 (read off the curve) [4]: ~0.8 nM

B3: DART-1 (bispecific antibody)
chain 1: QLVLTQSPSASASLGSSVKLTCTLSSGHKTDTIDWYQQQPGKAPRYLMKLEGSGSYNKGSGVPDRFGSGSSSGADRYLTISSLQSEDEADYYCGTDYPGNYLFGGGTQLTVLGGGGSGGGGEVQLVESGGGLVQPGGSLRLSCAASGFTFSTYAMNWVRQAPGKGLEWVGRIRSKYNNYATYYADSVKGRFTISRDDSKNSLYLQMNSLKTEDTAVYYCVRHGNFGNSYVSWFAYWGQGTLVTVSSGGCGGGKVAALKEKVAALKEKVAALKEKVAALKE
chain 2: QAVVTQEPSLTVSPGGTVTLTCRSSTGAVTTSNYANWVQQKPGQAPRGLIGGTNKRAPWTPARFSGSLLGGKAALTITGAQAEDEADYYCALWYSNLWVFGGGTKLTVLGGGGSGGGGQEQLVESGGGLVQPGGSLRLSCAASGFTFSDYYMSWVRQAPGKGLEWVATIYPSSGKTYYADSVKGRFTISSDNAKNSLYLQMNSLRAEDTAVYYCARDSYADDAALFDIWGQGTTVTVSSGGCGGGEVAALEKEVAALEKEVAALEKEVAALEK
notes: VL: parental; VH: parental; also called ROR1×CD3 bispecific two chain diabody with parental anti-ROR1-VL and anti-ROR1-VH
- MR(%) (maximum response), redirected cell killing of HBL-2 cells (LDH release) [6]: 28.5%
- MR(%) (maximum response), redirected cell killing of JIMT-1 cells (LDH release) [6]: 42.4%
- MR(%) (maximum response), redirected cell killing of Jeko-1 cells (LDH release) [6]: 37.4%
- Kd [7]: 4 nM
- EC50 (read off the curve) [3]: ~2 nM

B4: DART-32 (bispecific antibody)
chain 1: QLVLTQSPSASASLGSSVKLTCTLSSGHKTDTIDWYQQQPGKAPRYLMKLEGSGSYNKGSGVPDRFSGSSSGADWYLTISSLQSEDEADYYCGTDYPGNYLFGGGTQLTVLGGGGSGGGGEVQLVESGGGLVQPGGSLRLSCAASGFTFSTYAMNWVRQAPGKGLEWVGRIRSKYNNYATYYADSVKGRFTISRDDSKNSLYLQMNSLKTEDTAVYYCVRHGNFGNSYVSWFAYWGQGTLVTVSSGGCGGGKVAALKEKVAALKEKVAALKEKVAALKE
chain 2: B3 chain 2 with F186L, N195D, A215T
notes: ROR1×CD3 two chain diabody
- fold enhancement of binding relative to DART-1 [5]: > 2 fold
- Kd [7]: 1.1 nM
